# Assay results as given in PMC11117632.
# pKd: −log10 of the molar value.
# Experiments:
# [1] = system: inactivated SARS-CoV-2 virus (whole virion) (SARS-CoV-2 strain CN2); experiment: ELONA; conditions: binding buffer 50 mM HEPES pH 7.4, 100 mM NaCl, 5 mM KCl, 2 mM MgCl2, 1 mM CaCl2; room temperature in SELEX, ELONA temperature not stated
# [2] = system: inactivated SARS-CoV-2 virus (whole virion) (SARS-CoV-2 strain CN2); experiment: EIS; conditions: 5' SH, 3 x iSp18 spacer; binding buffer 50 mM HEPES pH 7.4, 100 mM NaCl, 5 mM KCl, 2 mM MgCl2, 1 mM CaCl2; room temperature in SELEX, ELONA temperature not stated
# [3] = system: inactivated SARS-CoV-2 virus (whole virion) (SARS-CoV-2 strain CN2); experiment: ELONA competition; conditions: binding buffer 50 mM HEPES pH 7.4, 100 mM NaCl, 5 mM KCl, 2 mM MgCl2, 1 mM CaCl2; room temperature in SELEX, ELONA temperature not stated
Sequence,pKd [1],binding signal (% impedance decrease) [2],binding signal (% signal decrease) [3]
GCAATGGTACGGTACTTCCCGGGGCGGGCTGTCATGCCCATCCTACCGTGACCGCAAAAGTGCACGCTACTTTGCTAA [aptamer 6.8],7.68,–,–
GCAATGGTACGGTACTTCCATGGCTGGTGCTTGAGGTGTGTGTGGGGGTAGGGCCAAAAGTGCACGCTACTTTGCTAA [thiolated aptamer 6.9],–,40,–
GCAATGGTACGGTACTTCCATGGCTGGTGCTTGAGGTGTGTGTGGGGGTAGGGCCAAAAGTGCACGCTACTTTGCTAA [aptamer 6.9],8.02,–,56
